This series in a line: label from the status in PepcDB records.
Consider “MTQMRMPTSPTRPATAWPLYALPSPGEAIRQFTPNWFAVTMGTGILSLVLGQLPWPVPGAALLGAGLWRCNVGLFVVFSALYLARWALYPHEARRILAHPTASMFLGTIPMGLATLINGLLLYGLPRWGAAVIPVATALWWMDAAMALACGVLVPYLMFTRQQHRMEQMTALWLLPVVAAEVAAASAGALAPHLADAGSRFGMLVAGYVLWAYSVPVALGILVILWLRMALHQLPQASMAASSWLALGPIGTGALGMLVFAGDAPALFAAHGMGTIGQAAAGCGLIAGLLLWGLGLWWLALAILITARYFADKVPFNLGWWGFTFPLGVYALATLKLGAALQMQVFDVVGSVLVLLLCVTWTIVAARTAAGAYRGTLFVAPCLVESSEHAPAR”, for which the protein production entry was “failed”. The entry for “MSKFYSEQFKRDAVALYENNENLSLAAAAAELRVNRASLHQWKKELGTGKRTRMIEAKAQAEAASDAERIRALEKENAKLREERDILRKAAKYFAEETSWLEHHHHHH” is “failed”.

For “MQLGFAMLADPILLITILLGFAMAWAIGANDAANSMSTAVGAGAITPRQAVIIAGVLEFMGAYFFGKTVTETIRKGIIDPSKITDPNVLIFGSIAALIGATIWLVIATKYGLPVSTTHSIIGGIVGYGIVYGGMSIVNWDKMIKVVLSWILSPIVGAIFAYLVFRALSKTVLQSKDPVKSAKRWSPFWIGLAFVVIGTMFYIKVLHGNSLLEGFLKYGMPAGILTFIVVSLILEKRFPATDPYLGAERVFRRVQVITSAYVALAHGANDVANAIGPVAAVYTVAMFGLAGAKVPVPRWILALGGLGIAIGVATYGYKVMETVGKKITELTNTRGFTIDFSAATVVLIASWLGMPISTTHTVVGAVIGVGLARGIKAINKDIVKDIIISWFVTVPAAGVIAGIIFKALMMLMG”, the protein production entry is reported as “failed”. Consider “MVITLSRLYVHPVKSMRGLQLSHAQVSSSGLAFDRVFMITEPDGTFITARQYPKMVMFTPALMSDGLYLTAPDGESASIRFNDFLANAEPTEVWGNHFTALIAPAAINNWLSGYFQREVQLRWLGPELTRRVKPMPEIPLSFADGFPYLLINEASFKELQQRCPGSIKLEQFRPNLLVTGASAFAEDSWQVIRVGDITFDLVKPCSRCVLTTVSVERGRKHPTGEPLQTLQTFRTAENGDIDFGQNMVARNSGIIRVGDEVEVLSTKPPRPYGAGAVVESLAAPEDKSKAVAIEYNGIRFNGNNQQVLLEQLEQQNIRIPYSCRAGICGSCRITLINGEVAPLKQSAIGNDGTILCCSCIPKGDITLSGK”, for which the protein production entry is “failed”. As to “MKIMGFYSQVILPRLLDWSLSDPTLATYRQELLTDVTGEVLEIGFGTGLNLAYYPSHIHKITTVDVNPGMNTIAQKRIDDSGIKVQQLLLSGENLPMADNTFDSVVSTWTLCSIANVEQALQEVYRVLKPGGKFFFLEHGLSNKPNVQVWQNRLTPIQKVLADGCHLNRNIQQLVEQSFDHVELKRFTPENFPDLMAHFYKGCATKKSILEHHHHHH”, the protein production result was “not failed”. For “VLASILLSQAAYESNYGSSLLSVKYHNIYSLPARPGQEHIYLKDNVYSKGKWQYQKVDFAVFRDWSSSMSSYLEELRQGRWGESTYKEVAGTTSYKVAAEKLQAAGFNSDPDYTKHLISIIETYNL”, the protein production result was “failed”. The entry for “MESSKKMDSPGALQTNPPLKLHTDRSAGTPVFVPEQGGYKEKFVKTVEDKYKCEKCHLVLCSPKQTECGHRFCESCMAALLSSSSPKCTACQESIVKDKVFKDNCCKREILALQIYCRNESRGCAEQLTLGHLLVHLKNDCHFEELPCVRPDCKEKVLRKDLRDHVEKACKYREATCSHCKSQVPMIALQVSLLQNESVEKNKSIQSLHNQICSFEIEIERQKEMLRNNESKILHLQRVIDSQAEKLKELDKEIRPFRQNWEEADSMKSSVESLQNRVTELESVDKSAGQVARNTGLLESQLSRHDQMLSVHDIRLADMDLRFQVLETASYNGVLIWKIRDYNRRKQEAVMGKTLSLYSQPFYTGYFGYKMCARVYLNGDGMGKGTHLSLFFVIMRGEYDALLPWPFKQKVTLMLMDQGSSRRHLGDAFKPDPNSSSFKKPTGEMNIASGCPVFVAQTVLENGTYIKDDTIFIKVIVDTSDLPDP” is “not failed”; for “MIEENLVEFIEILMLATAVAVTVKFIRLPYTIALVLAGLFVGLAGLLPEVPLSREIVFFIFLPPLLFEAAMNMDLKELRENFGPIALIAFLGVVVTTTVVGFSLNWILGIPLALALIFGAMVSATDPVSVLATFKSISAPKKLSILIEGESVLNDGAAIVVFAIALEMMLKGVFDPLNAALDFAVVCVGGAAVGLAVGYLAYRILAKIDDALVEIAVTIVAAYLGFVLAERFHFSGVIAVVAAGLILGNYGRDFSMSPTTRVIMLDFWSVIVFLVNSIIFILIGVNTHITIFSAWKEILVAIAAVILARAFVVYPVMTYYRFPNLWKHVVFWGGLRGVIPVALALSFGNQLLSAMAFGVVLFSLLLQGISLEIFVKRKFVSESERELEEIIARYIAARSAKFELMKAVEQGRIVEPVAREMLPNLDAEIEELRSKLEEKIRGGMGSKLRKAAVKYVIDAKKSAVVDAMAGGLVSQEVALEIMRELDSKTAELME” it is “failed”.

On to “MDRYIDGFMKWMPESLFICFILTFLVVTMSVLMTDSPFIGTEKTGGIIYGWVNGFWGLLSFAMQMTILLATGNAVASSPPAHKMFKSLAKLPQTRTQIFIFSIVVGSIFGFLHWGLGMMVAIVFGKELLVQARQKGIKVHTPLFVATLFFTFLPATSGLSGAAVLYSATPDYLRNSVADAYKQVVPESVPLTESVLNLPFISLLVVCMLVPLCFALLAHPKDETKIMELDDEIYHHSLDTASHVVIARNTPAEKMNASRLVMYLVGGAIVSYSLYHFSVVGLSGLDLNCFNFLFLGLGLLLCGQQGPEYYGSLFKDGVMSSWGLVLQFPFYAGIFGIIQSTGLGLEISHFFVAISNGTTWPVFAYLYSALLNIAVPSGGSKFVIEAPYIVPATIEVGNDLGKILQAYQLGDATTNLIVPFWALSYLSNFKLKFNQIVAYTIPCVLVVTGIAIIYLFVF”, for which the protein production result is given as “failed”. The entry for “MESQLTLITLTLVIATIFGVALSRFRISPIPAYLIAGLLGKSFGLDYSSDLFNFLSTLAINLVSFNVGISLDIRELKNILSKATIIAITEYIVGFTIISIISLIIGLPFYDTFILTIISVTTSTTITYKLIQNKIDDKQSGLILAVLSLEDVITFIALGVILSSNSNIVEIIPTSLASLGLGYLVSRTIINRSINTSEESVIISSIASVLSFSLLGQIFDIPSTLANFLLGLGASYALKDTKKVSRILSPLIDFSLIFFFFSAGSYLNLSLSSLYVLVPISLIMTLVKYLSFSTSYWLTGSNFLVAFRSGIYMTSLSELGIIVALNAFQQGIITSLVYNLSAFLVMMSSTITSITVPRERRIIGLISKTYEKLRIDRIDGALQRITRVVKLNRNTTSNFILRFILIGLITIFSASYLLIFLVSFARFFIYIAPLISVLVPFLLALLVIEETRRLSNLGQKRINEIILWIIYVFITINFEIFIVRIISELNYYVIYLGILVSIIVIVIMYQRLNTFIKELDKSL” is “failed”.

In the case of “TLLLIFSFFVVTIGGLVQIVPLFYLENTIEKVEGVRPYTPLELAGRDIYIREGCYVCHSQMIRPMRDETERYGHYSLAAESMYDHPFQWGSKRTGPDLARVGERYSDEWHVDHLTNPQSVVPESIMPKYGFLSHTVIDGRYIRDLMSVHRIVGVPYSDEMLENAVADFKAQANPDADTDGLLERYGKAAVRNFDGQAELTEMDALISYLQVLGT”, the protein production entry was “failed”. Next, “MPYLAGCGAVLYVDVMPEGTLLTRGVSASPTRCGRTPPGGRGVWLLCATIFYWAVARFGMALFSLAPENITPLWLASGVGLIMCLEAGLSAVPCIALASAVANFPGLSASGGESPLLYAVLTGTADGLSAGLLAALGSRVLQGGITSVLDLLRGVVLVCLPATLIGGVAITLCLFTGGYVPRDVLCQMSFSLMAGDTLGVLLVFPLWRAWHVLPLPSRTELCWMAGVLCLCLLSIWSAFFVEGAAIHMLMPLLVLLSCNVRINGVMVVLFLTVIAVFIATAHRVGPFHMPTQGEAVMLLVSFAASTTLTTLGLSLYRHLLAQAGARATMWEQRAGIDPLTGLCNRARFDEVLLAELQRLQRQDSPLSLMMFDADHFKPYNDMYGHVAGDACLKRVAGVLRAVAHRASDVVARYGGEEFVCILPGTDRDSAYALAEKVRQGVRALAIPHVGSPVAGVLTVSAGVVTVHGCDGLDPQEVVAQVDRALYQAKGAGRDRVMVAKGAAKEGMQYGECALSGVQRLVWSEDYACGEPRIDASHRALLAKADSIMSSLGGADGLNARRACILALVDAVRMHFREEERVLAAIGYPKAGEHAVIHEALLQRGASLVAAWERGGMSLDDVVITLVHGMVMRHMLDDDSAFFEHVQQWGAGGTQP”: “failed”; “MKSVSTWALSFFSDELSRRAVSDCYLWTTAISLLLILLLHIFFSTKFRFFTSAPSSSSSSSSSSSPSTESVPANSQSRISKLVSDEDLKFLIENLEEETNDSTEIWEHVIHKSNDRISYSAKRCKPKDGGGPMKYLSVTVFEGFSAEIVRDFYMDNDYRKLWDKTVVEHEQLQVDSNTGIEIGRTIKKFPLLTSREYVLAWRLWQGKEKKFYCFTKECDHNMVPQQRKYVRVSYFRSGWRIRQGNILSTFDTYLTDTFDTLAAVPGRNACEIKMFHQENAGLNVEMAKLAFSKGIWSYVCKMENALCKYIATSHRTQGPILSAVTLMKEVPSELETGTDNVTGSMETSSGEGVLSHVVAAKQKKKMRKPSTKLIAKGLVLVGGAICLSRGPSALGAKVALAYLLTKLNKRGTSLNQTTQTTTI”: “failed”; “MAVFHDEVEIEDFQYDEDSETYFYPCPCGDNFAITKEDLENGEDVATCPSCSLIIKVIYDKDQFMCGETV”: “not failed”. With “MATRRTFLRGAISLTLIGSTGQLRALAHPRANTWALPIDTQAQADLTRYVDVFIGSSGHGHTFPGATLPFGMVQLSPDTDNAVWDACSGYHASNGSIMGFSHTHLSGTGIGDMLDILLMPGTGDVKLAPGPLNAPETGYRQRYDHAEEVASPGYYQVRLKDTDIVAELTATARTGLHRYHFPQHQAGHLLLDLSHAMQDNPSTPPRLRDVELSIVDTRTLLGGRRVYQWAKGRYLFFAMRLSRPFARAQLYSNDAPLTADTRQVQGVCLKAALHFPDAGEAPLLVKVGLSAVSAANALANLDAELPDFDFARVHAEAVAAWENALGRARIATDNPAQRRIFYTSLYHSLLAPTLFSDVDGRYRGMDLQVHTLPTGYHNYSTYSLWDTYRALHPLLTLVQSDRVPDLLQCLVRGAAECPDGVGIWPLQGVETGCMIGYHSAVALAEGYTKGFTGIDYAAAWPHYRKRAMQDHAHGLRYYRRLGYIPSDKVDESVSRTLEYAYDDWACAHLATAAGAHSEARVLRARSRHYRHVFNRDSGFMQPRLENGAWATPFDPRALGHLKQWHDFTECNAWQATFLNQHDVYGYMALFGGADHFAAKLDALFSALSELPPGAPPDIDGMVGQYAHGNEPSHHIAYLYVYAGQAYKTQAMVRRLLREQYHDGRDGLSGNEDCGQMSAWFVLSALGMYAVDPVSGIYVIGSPLFPYAELDVGRGRKLRILARHTSASNVYVQALRWNGSPMTRAWLRHTELAGGGTLEFEMGAQPNLDFGTHPQDLPPSFMALQPVPKHA”, the protein production result is recorded as “failed”. For “MIISLIAALAADRVIGMENAMPWHLPADLAWFKRNTLNKPVIMGRKTFESIGRPLPGRLNIVISSQPGTDERVTWAASIEEALAFAGNAEEVMVMGGGRVYKQFLDRANRMYLTHIDAEVGGDTHFPDYEPDEWESVFSEFHDADEANSHSYCFEILERR”, the protein production entry is recorded as “not failed”. The entry for “MSSSSVIMDFLKYSPQPLQLITRPRHSIHHSTLRSSRRLTTSHNHSTPRSSSSHHHFSPSLDPVAEHHHHQSLDRTLDLVVESPHHHSLDPSLCHQVEFHHHPPLDIILDCQLQSLLDSAINKTLEHKEEMKTLARHSTHYLITWVEYHS” is “failed”.

For “MITGTLINALTVVFASLLGLAIGSRLSESIRGAIINVLGLAVLLIGISMALETKNVLIPTLSVVAGTAVGEVMGIEKALQSFGDRVERRLGKGRFSEGFVAATLLYCVGPMAILGPIQEGLTGDMSVLMAKSLLDGVASVALASALGIGVAFSSISILVYQGFFALLAAQLSSVVTERIIAEFTSTGGLLIMGIGINLLELRKLRVGNMLPALIFAPLIVAVLQLTGL”, the protein production entry is given as “failed”.

Source of the values: a protein production outcome set (Wang et al. 2014).
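Also: failed if final PepcDB status was selected cloned or expressed and not failed if soluble or beyond.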
